Results reported in patent US20160068834A1 (published 2016).
Where two headings read alike, the source gives them in different places. Bridges are numbered along the chain shown (N, C = ends). Where no end group is shown, it is not given here. [ ]: non-standard residue; d: D form. The star is where a group is joined. FITC = O=C1OC2(c3ccc(O)cc3Oc3cc(O)ccc32)c2ccc(NC(=S)*)cc21; S5 = C=CCCC[C@](C)(N)C(=O)O; Nle = CCCC[C@H](N)C(=O)O

Experiments:
[1] = biological target: T1, C-terminal His-tagged EED (His-EED) (UniProt O75530 1-441); experiment: fluorescence polarization
[2] = biological target: T1, C-terminal His-tagged EED (His-EED); experiment: fluorescence polarization; remark: listed apart in the source
[3] = biological target: purified EED (Example 6) (UniProt O75530 1-441); experiment: competitive fluorescence polarization; competition against FITC-EZH2(42-68)
Sequence of purified EED (Example 6) (O75530 whole entry): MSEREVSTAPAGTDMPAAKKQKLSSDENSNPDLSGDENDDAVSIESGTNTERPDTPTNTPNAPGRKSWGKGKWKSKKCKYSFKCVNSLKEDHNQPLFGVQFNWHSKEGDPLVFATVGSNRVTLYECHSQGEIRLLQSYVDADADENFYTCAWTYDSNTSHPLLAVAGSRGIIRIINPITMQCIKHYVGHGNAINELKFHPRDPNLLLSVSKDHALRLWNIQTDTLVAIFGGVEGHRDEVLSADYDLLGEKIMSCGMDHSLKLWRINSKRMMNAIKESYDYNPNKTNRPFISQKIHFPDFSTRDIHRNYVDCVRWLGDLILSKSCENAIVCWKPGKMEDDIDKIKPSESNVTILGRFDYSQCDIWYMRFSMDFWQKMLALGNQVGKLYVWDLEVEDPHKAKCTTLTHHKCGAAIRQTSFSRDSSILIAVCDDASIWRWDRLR

T1 sequence (O75530 whole entry): as above

Binder | Kd [2] | other results
{FITC}-FSSNR[S5]KIL[S5]RTQILNQEWKQRRIQPV (staple 6-10) [FITC-SAH-EZH2A(42-68)E54Q] | – | Kd [1]: 320 nM
{FITC}-FSSNR[S5]KIL[S5]RTQILNQQWKQRRIQPV (staple 6-10) [FITC-SAH-EZH2A(42-68)E54Q/E59Q] | – | Kd [1]: > 10000 nM
{FITC}-S[Nle]FSSNR[S5]KIL[S5]RTEILNQEWKQRRIQPV (staple 8-12) [FITC-SAH-EZH2A(40-68)] | 333 nM | –
Ac-FSSNR[S5]KIL[S5]RT[S5]ILN[S5]EWKQRRIQPV (staple 6-10, 13-17) [acetyl-SAH-EZH2(42-68)AC] | – | Kd [3]: 650 nM
{FITC}-FSSNR[S5]KIL[S5]RTEILNQEWKQRRIQPV (staple 6-10) [FITC-SAH-EZH2A(42-68)] | 468 nM | –
Ac-FSSNR[S5]KIL[S5]RTQILNQEWKQRRIQPV (staple 6-10) [acetyl-SAH-EZH2] | – | Kd [3]: 1130 nM

The next lines start with results.

Kd [2] | Binder | other results
264 nM | {FITC}-S[Nle]FSSNRQKILERT[S5]ILN[S5]EWKQRRIQPV (staple 15-19) [FITC-SAH-EZH2B(40-68)] | –
528 nM | {FITC}-FSSNRQKILERT[S5]ILN[S5]EWKQRRIQPV (staple 13-17) [FITC-SAH-EZH2B(42-68)] | –
